Source: IntAct's records for PubMed 16810321

B1: bZIP transcription factor 53 (Arabidopsis thaliana (Mouse-ear cress)), Q9LZP8 (parent)
chain: MGSLQMQTSPESDNDPRYATVTDERKRKRMISNRESARRSRMRKQKQLGDLINEVTLLKNDNAKITEQVDEASKKYIEMESKNNVLRAQASELTDRLRSLNSVLEMVEEISGQALDIPEIPESMQNPWQMPCPMQPIRASADMFDC
partner: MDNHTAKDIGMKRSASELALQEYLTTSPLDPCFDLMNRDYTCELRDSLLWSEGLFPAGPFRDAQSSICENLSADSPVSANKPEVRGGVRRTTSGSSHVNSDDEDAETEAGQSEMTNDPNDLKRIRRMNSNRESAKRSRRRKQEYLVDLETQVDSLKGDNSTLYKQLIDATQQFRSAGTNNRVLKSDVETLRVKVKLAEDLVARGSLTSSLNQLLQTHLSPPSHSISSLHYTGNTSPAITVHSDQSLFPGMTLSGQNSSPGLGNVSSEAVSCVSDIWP
B2: bZIP transcription factor 53 (Arabidopsis thaliana (Mouse-ear cress)), Q9LZP8 (parent)
chain: B1 chain
partner: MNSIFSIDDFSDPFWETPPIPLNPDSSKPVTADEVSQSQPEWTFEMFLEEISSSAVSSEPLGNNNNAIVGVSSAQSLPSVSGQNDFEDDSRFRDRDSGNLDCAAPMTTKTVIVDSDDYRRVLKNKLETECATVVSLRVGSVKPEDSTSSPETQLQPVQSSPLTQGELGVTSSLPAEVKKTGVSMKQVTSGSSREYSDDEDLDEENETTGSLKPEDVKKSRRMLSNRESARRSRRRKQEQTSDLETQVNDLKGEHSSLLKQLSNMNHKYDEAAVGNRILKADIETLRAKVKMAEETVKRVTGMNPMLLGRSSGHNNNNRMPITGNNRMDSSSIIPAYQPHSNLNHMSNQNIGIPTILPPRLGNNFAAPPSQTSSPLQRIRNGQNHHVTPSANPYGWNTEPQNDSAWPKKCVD

Variants of: B1
Conditions: with bzip9_arath BZIP9, Q9FUD3

| effect of a mutation on the interaction | Variant |
| --- | --- |
| disrupting interaction | L51P |
| disrupting interaction | A72P |

Variants of: B2
Conditions: with bzp10_arath BZIP10, O22763

| effect of a mutation on the interaction | Variant |
| --- | --- |
| disrupting interaction | A72P |
| disrupting interaction | L51P |
